Laboratory results from patent publication US20050123920A1.
Values belong to the substance of their own block, whether it stands above or below them.

Legend:
HA-VHL = HA-VHL (UniProt P40337); assay: co-immunoprecipitation of cotransfected proteins
[1] = target: FL-Jade-1 (tagged library clone, transfected) (human); assay: co-immunoprecipitation of cotransfected proteins
[2] = target: human Jade-1 protein (human); assay: estimate based upon co-localization data (immunofluorescence)
[3] = target: human Jade-1 protein (human); assay: cell-based or functional assay

Sequence of UniProt P40337 (P40337 whole entry): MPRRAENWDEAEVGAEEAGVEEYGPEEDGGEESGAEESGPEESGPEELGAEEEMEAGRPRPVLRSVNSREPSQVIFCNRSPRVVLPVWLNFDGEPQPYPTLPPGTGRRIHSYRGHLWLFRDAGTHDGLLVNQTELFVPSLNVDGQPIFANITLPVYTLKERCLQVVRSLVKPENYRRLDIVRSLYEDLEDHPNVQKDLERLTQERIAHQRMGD

percent of Jade-1 in the cell lysate immunoprecipitable with VHL (HA-VHL): 30 to 40%
Substance: FL-Jade-1 (tagged library clone, transfected)

percent of VHL in the cell lysate immunoprecipitable with Jade-1 (vice-versa) [1]: 30 to 40%
Substance: HA-VHL (from UniProt P40337 1-213)

percent of VHL that associates with Jade-1 [2]: < 10%
endogenous Jade-1 protein half-life in VHL-plus 786-O renal cancer cells (~40 minutes in VHL-minus cells), metabolic labeling [3]: 1 h
half-life of Jade-1 transiently transfected with VHL (data not shown) [3]: 1.5 h
increase of Jade-1 protein half-life with cotransfected VHL in 293 cells, pulse-chase [3]: 2 fold
Substance: von Hippel-Lindau (VHL) protein, wild-type human (from UniProt P40337 1-213)
